The results in this text go back to patent US20230287598A1 (TAURUS BIOSCIENCES, published 2023).

Positions count from the first letter of the chain named. Numbers in names are those of the source.

Sequences and labels used below:
T1: CXCR1 (UniProt P25024 1-350, limits assumed)
T1 construct: whole, on cells; DiscoveRx PathHunter cell line; any reporter tag on the receptor is not described; also called CXCR1 receptor; CXCR1-U2OS
T1 sequence (looked up): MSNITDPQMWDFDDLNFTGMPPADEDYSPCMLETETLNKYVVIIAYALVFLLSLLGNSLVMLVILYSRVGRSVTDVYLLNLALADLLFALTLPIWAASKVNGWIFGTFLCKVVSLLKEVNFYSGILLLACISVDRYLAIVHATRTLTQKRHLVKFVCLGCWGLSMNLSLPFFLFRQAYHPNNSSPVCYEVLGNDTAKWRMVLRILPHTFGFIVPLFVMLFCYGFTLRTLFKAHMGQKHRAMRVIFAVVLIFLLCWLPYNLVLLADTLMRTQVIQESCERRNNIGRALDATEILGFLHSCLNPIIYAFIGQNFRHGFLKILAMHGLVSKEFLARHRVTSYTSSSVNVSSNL

B1: VH4-34+CDR3-IL8_CDR1 Cow / VL1-51 S2A, T5N, P8S, A12G, A13S, P14L, K46R, L47T, D51G, N52D, N53T IgG (antibody)
VH: QVQLQQWGAGLLKPSETLSLTCTASGFSLSDKAVGWIRQPPGKGLEWIGEINHSGSTNYNPSLKSRVTISVDTSKNQFSLKLSSVTAADTAVYYCTSVHQETKKYQSPRSAKELRCQCIKTYSKPFHPKFIKELRVIESGPHCANTEIIVKLSDGRELCLDPKENWVQRVVEKFLKRAENSGSGSYTYNYEWHVDVWGQGLLVTVSSAS
light: QAVLNQPSSVSGSLGQKVTISCSGSSSNIGNNYVSWYQQLPGTAPRTLIYGDTKRPSGIPDRFSGSKSGTSATLGITGLQTGDEADYYCASAEDSSSNAVFGSGTTLTVLGQPKAAPSVTLFPPSSEELQANKATLVCLISDFYPGAVTVAWKADSSPVKAGVETTTPSKQSNNKYAASSYLSLTPEQWKSHRSYSCQVTHEGSTVEKTVAPTECS
B2: VH4-34+CDR3-IL8_CDR2 Cow / VL1-51 S2A, T5N, P8S, A12G, A13S, P14L, D51G, N52D, N53T IgG (antibody)
VH: QVQLQQWGAGLLKPSETLSLTCAVYGGSFSGYYWSWIRQPPGKGLEWLGSIDTGGNTGYNPSLKSRVTISVDTSKNQFSLKLSSVTAADTAVYYCTSVHQETKKYQSPRSAKELRCQCIKTYSKPFHPKFIKELRVIESGPHCANTEIIVKLSDGRELCLDPKENWVQRVVEKFLKRAENSGSGSYTYNYEWHVDVWGQGLLVTVSSAS
light: B1 light with R46K, T47L
notes: nt HC 433, LC 444
B3: VH4-34+CDR3-IL8_CDR2 E50S / VL1-51 S2A, T5N, P8S, A12G, A13S, P14L IgG (antibody)
VH: B2 VH with L48I, D52N, T53H, G54S, N56S, G58N
light: B1 light with R46K, T47L, G51D, D52N, T53N
B4: VH4-34+CDR3-IL8_CDR1 Cow_CDR2 E50S / VL1-51 S2A, T5N, P8S, A12G, A13S, P14L IgG (antibody)
VH: B1 VH with E50S
light: B1 light with R46K, T47L, G51D, D52N, T53N
B5: VH4-34+CDR3-IL8_CDR1 Cow_CDR2 E50S / VL1-51 S2A, T5N, P8S, A12G, A13S, P14L, K46R, L47T, D51G, N52D, N53T IgG (antibody)
VH: B1 VH with E50S
light: B1 light
B6: VH4-34+CDR3-IL8_CDR1 G31D,Y32K / VL1-51 S2A, T5N, P8S, A12G, A13S, P14L IgG (antibody)
VH: B1 VH with T23A, A24V, S25Y, F27G, L29F, A33Y, V34W, G35S
light: B1 light with R46K, T47L, G51D, D52N, T53N
B7: VH4-34+CDR3-IL8_CDR1 G31D,Y32K / VL1-51 S2A, T5N, P8S, A12G, A13S, P14L, K46R, L47T, D51G, N52D, N53T IgG (antibody)
VH: B1 VH with T23A, A24V, S25Y, F27G, L29F, A33Y, V34W, G35S
light: B1 light
notes: nt HC 434, LC 486
B8: VH4-34+CDR3-IL8_CDR1-Cow / VL1-51 S2A, T5N, P8S, A12G, A13S, P14L IgG (antibody)
VH: B1 VH
light: B1 light with R46K, T47L, G51D, D52N, T53N
notes: also called BID 34
B9: VH4-34+CDR3-IL8_CDR1 Cow_CDR2 Cow / VL1-51 S2A, T5N, P8S, A12G, A13S, P14L, D51G, N52D, N53T IgG (antibody)
VH: B1 VH with I48L, E50S, N52D, H53T, S54G, S56N, N58G
light: B1 light with R46K, T47L
B10: VH4-34+CDR3-IL8_CDR1 G31D,Y32K_CDR2 E50S / VL1-51 S2A, T5N, P8S, A12G, A13S, P14L, D51G, N52D, N53T IgG (antibody)
VH: B2 VH with G31D, Y32K, L48I, D52N, T53H, G54S, N56S, G58N
light: B1 light with R46K, T47L
B11: VH4-34+CDR3-IL8_CDR2 E50S / VL1-51 S2A, T5N, P8S, A12G, A13S, P14L, K46R, L47T, D51G, N52D, N53T IgG (antibody)
VH: B2 VH with L48I, D52N, T53H, G54S, N56S, G58N
light: B1 light
B12: VH4-34+CDR3-IL8_CDR1 G31D,Y32K_CDR2 E50S / VL1-51 S2A, T5N, P8S, A12G, A13S, P14L IgG (antibody)
VH: B2 VH with G31D, Y32K, L48I, D52N, T53H, G54S, N56S, G58N
light: B1 light with R46K, T47L, G51D, D52N, T53N
B13: VH4-34+CDR3-IL8_CDR1-Cow_CDR2-Cow / VL1-51 S2A, T5N, P8S, A12G, A13S, P14L IgG (antibody)
VH: B1 VH with I48L, E50S, N52D, H53T, S54G, S56N, N58G
light: B1 light with R46K, T47L, G51D, D52N, T53N
notes: also called BID 36; VH4-34 MutB IL-8 CDR1cow CDR2cow

In the test the target is T1, CXCR1. The test is described as follows: flow cytometry, supernatant at 5 nM IgG. A general note: A flow cytometer gives signals particle by particle.
Turning to B1, the “Specific Binding (CXCR1-Cell median AFU / Parental Cell median AFU)” value worked out at 10.

As to B2, the “Specific Binding (CXCR1-Cell median AFU / Parental Cell median AFU)” value is 4.

Turning to B3, the “Specific Binding (CXCR1-Cell median AFU / Parental Cell median AFU)” value was 4.

Consider B4, for which the “Specific Binding (CXCR1-Cell median AFU / Parental Cell median AFU)” value was determined as 5.

For the molecule B5, the “Specific Binding (CXCR1-Cell median AFU / Parental Cell median AFU)” value was found to be 6.

Regarding B6, the “Specific Binding (CXCR1-Cell median AFU / Parental Cell median AFU)” value is 4.

Turning to B7, the “Specific Binding (CXCR1-Cell median AFU / Parental Cell median AFU)” value worked out at 15.

On to B8, for which the “Specific Binding (CXCR1-Cell median AFU / Parental Cell median AFU)” value was found to be 4.

B9: the “Specific Binding (CXCR1-Cell median AFU / Parental Cell median AFU)” value came out at 10.

On to B10, for which the “Specific Binding (CXCR1-Cell median AFU / Parental Cell median AFU)” value is 17.

As to B11, the “Specific Binding (CXCR1-Cell median AFU / Parental Cell median AFU)” value came to 5.

As to B12, the “Specific Binding (CXCR1-Cell median AFU / Parental Cell median AFU)” value stood at 5.

As to B13, the “Specific Binding (CXCR1-Cell median AFU / Parental Cell median AFU)” value came to 11.
